From PMC3285612

Legend:
[1] = target: activated coagulation factor X (FXa), human (human)
[2] = target: activated coagulation factor X (FXa), human (human); experiment: enzyme inhibition assay (Ki from IC50 by Cheng and Prusoff); rSimukunin titrated against a constant concentration of enzyme, pre-incubated 5 min, fluorogenic peptidyl substrate 250 µM, 30°C; Ki calculated from the IC50 and the substrate's Km; estimated

B1: recombinant Simukunin (rSV-66) (natural protein)
chain: QENVCNLPVDEGVCRALFKRFYYEPATDSCKEFYYGGCEGNGNRFKSKKECILKCQKNKQLIKTRKRKPKKTTKPPIPIISLD
[1]
  IC50 of inhibition of enzyme activity (fluorogenic peptidyl substrate, 250 µM); Factor Xa 0.1 nM: 5.2 nM
[2]
  Ki: 2.1 nM
